{"source": "patent CN114044821A", "about": "(INST MILITARY MEDICINE ACADEMY MILITARY SCIENCES PLA, dated 2022)", "binders": {"B1": {"name": "抗SARS-CoV-2全人源单克隆抗体ZWC12 (antibody, V domains shown)", "VH": "EVQLVESGGALVQPGGSLRLSCAASGFTFANYAMSWVRQAPGKGLEWVSSMTGSSIDSYYADSVKGRFTISRDNSRNTLYLQMNSLRAEDTAVYYCAKGELLWFGDLLHNWFDPWGRGTLVTVSS", "VL": "DIVMTQSPATLSVSPGERATLSCRASQSVSTNLAWYQQKPGQAPRLLIHGASTRATGLPARFSGSGSGTEFTLTISSLQSEDFAVYFCQQYDSWPGTFGPGTKVDIKR"}}, "target": "新冠病毒野生型刺突蛋白(S蛋白)，在假病毒/真病毒表面 (SARS-CoV-2, UniProt P0DTC2 14-1273)", "assay": "cell-based or functional assay"}
{"binder": "B1", "values": [{"measurement": "假病毒中和 EC50 (luciferase, HEK293T)", "value": 1.04, "unit": "µg/mL"}, {"measurement": "真病毒中和 EC50 (Vero E6, crystal violet)", "value": 25, "unit": "µg/mL"}]}
